Assay results reported in patent US20150368338A1 (Janssen / Centocor, published 2015).
Where a chain is given by its changes, count along the chain named.

T1: IFN-αF (human, UniProt P01568 24-189)
T1 chain: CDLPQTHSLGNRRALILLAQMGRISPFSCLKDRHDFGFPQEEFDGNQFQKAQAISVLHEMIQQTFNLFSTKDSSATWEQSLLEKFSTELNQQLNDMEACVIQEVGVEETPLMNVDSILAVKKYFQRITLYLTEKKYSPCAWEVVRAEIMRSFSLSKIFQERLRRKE

B1: IFWM3304 (antibody, IgG1, V domains shown)
VH: EVQLVQSGAEVKKPGESLKISCKGSGYSFTSYWIGWVRQMPGKGLEWMGIIDPSDSDTRYSPSFQGQVTISADKSISTAYLQWSSLKASDTAMYYCARHPGLNWAPDFDYWGQGTLVTVSS
VL: DIQMTQSPSSLSASVGDRVTITCRASQSIGSALNWYQQKPGKAPKLLIYFASSLQSGVPSRFSGSGSGTDFTLTISSLQPEDFATYYCQQSYDFPLTFGQGTKVEIK
B2: IFWM3308 (antibody, IgG1, V domains shown)
VH: B1 VH
VL: B1 VL with G30A, S31E, A32F, Y92I
B3: IFWM371 (antibody, IgG1, V domains shown)
VH: B1 VH
VL: not shown
B4: IFWM3307 (antibody, IgG1, V domains shown)
VH: B1 VH
VL: B1 VL with S31D, A32F, S91A, Y92L
B5: IFWM3310 (antibody, IgG1, V domains shown)
VH: B1 VH
VL: B1 VL with S31K, A32S
B6: IFWM3385 (antibody, IgG1, V domains shown)
VH: B1 VH with N103A
VL: B1 VL with S31D, A32F, S91A, Y92L
notes: mAb; IgG1/kappa said of the parent and of selected mAbs; also called IFWB3120
B7: IFWM3310 (antibody, IgG1, V domains shown)
VH: B1 VH
VL: B1 VL with S31K, A32S
B8: IFWM3405 (antibody, IgG1, V domains shown)
VH: B1 VH with N103A
VL: DIQMTQSPSSLSASVGDRVTITCRASQSIANNNLNWYQQKPGKAPKLLIHWASSLQSGVPSRFSGSGSGTDFTLTISSLQPEDFATYYCQQGYDTPFTFGQGTKVEIK
notes: mAb; IgG1/kappa said of the parent and of selected mAbs; also called IFWB3140
B9: IFWM3328 (antibody, IgG1, V domains shown)
VH: B1 VH
VL: DIQMTQSPSSLSASVGDRVTITCRASQSINNLNWYQQKPGKAPKLLIYWASSLQSGVPSRFSGSGSGTDFTLTISSLQPEDFATYYCQQGYDTPFTFGQGTKVEIK
B10: IFWM3321 (antibody, IgG1, V domains shown)
VH: B1 VH
VL: B1 VL with G30D, S31G, S91A
B11: IFWM3314 (antibody, IgG1, V domains shown)
VH: B1 VH
VL: B1 VL with G30D, S31R, Y92F
B12: IFWM3322 (antibody, IgG1, V domains shown)
VH: B1 VH
VL: B1 VL with G30A, S31D, A32F, Y92H, D93S
B13: IFWM3308 (antibody, IgG1, V domains shown)
VH: B1 VH
VL: B1 VL with G30A, S31E, A32F, Y92I
B14: IFWM3320 (antibody, IgG1, V domains shown)
VH: B1 VH
VL: B1 VL with G30N, S31G, A32V, Y92H
B15: IFWM3304 (antibody, IgG1, V domains shown)
VH: B1 VH
VL: B1 VL
B16: IFWM3307 (antibody, IgG1, V domains shown)
VH: B1 VH
VL: B1 VL with S31D, A32F, S91A, Y92L
B17: IFWM371 (antibody, IgG1, V domains shown)
VH: B1 VH
VL: not shown
B18: IFWM3410 (antibody, IgG1, V domains shown)
VH: B1 VH with N103A
VL: B8 VL with N32T, G92W, T95N, F97L
notes: mAb; IgG1/kappa said of the parent and of selected mAbs; also called IFWB3145
B19: IFWM3416 (antibody, IgG1, V domains shown)
VH: B1 VH with N103A
VL: B8 VL with A30R, N32T
notes: mAb; IgG1/kappa said of the parent and of selected mAbs; also called IFWB3151
B20: IFWM3399 (antibody, IgG1, V domains shown)
VH: B1 VH with N103A
VL: B1 VL with G30D, S31G, S91A
notes: mAb; IgG1/kappa said of the parent and of selected mAbs; also called IFWB3134
B21: IFWM3400 (antibody, IgG1, V domains shown)
VH: B1 VH with N103A
VL: B1 VL with G30A, S31D, A32F, Y92H, D93S
notes: mAb; IgG1/kappa said of the parent and of selected mAbs; also called IFWB3135

The binders below were run against IFN-αK (human, UniProt P05013 24-189) (assay: cell-based or functional assay).

Binder	IC50 (pM), ISRE assay
B1	57 pM
B2	59 pM
B3	7300 pM
B4	95 pM
B5	96 pM

These binders were tested against IFN-αWA (human, UniProt P05015 24-189) (assay: cell-based or functional assay).

Binder	IC50 (pM), ISRE assay
B1	237 pM
B2	894 pM
B3	74200 pM
B4	600 pM
B5	473 pM

These binders were tested against human IFN-ω (human, UniProt P05000 24-195) (assay: cell-based or functional assay).

Binder	IC50 (pM), ISRE assay
B1	31 pM
B2	40 pM
B3	43900 pM
B4	100 pM
B5	81 pM

The binders below were run against IFN-α4a (human, UniProt P05014 24-189) (assay: cell-based or functional assay).

Binder	IC50 (pM), ISRE assay
B1	112 pM
B2	295 pM
B3	32800 pM
B4	501 pM
B5	169 pM

The binders below were run against IFN-αI (human, UniProt P01571 24-189) (assay: cell-based or functional assay).

Binder	IC50 (pM), ISRE assay
B1	157 pM
B2	478 pM
B4	752 pM
B5	258 pM

What follows are binders tested against IFN-αJ1 (human, UniProt P01567 24-189) (assay: cell-based or functional assay).

Binder	IC50 (pM), ISRE assay
B1	126 pM
B2	363 pM
B3	35700 pM
B4	328 pM
B5	166 pM

Each binder was assayed against T2, IFN-αG (human, UniProt P01569 24-189) (assay: cell-based or functional assay).

Binder	IC50, ISRE assay
B6	77 pM
B7	73 pM
B8	26 pM
B9	486 pM
B10	34 pM
B11	57 pM
B12	83 pM
B13	167 pM
B14	82 pM
B15	47 pM
B16	95 pM
B17	12900 pM
B18	55 pM
B19	49 pM
B20	29 pM
B21	35 pM

The binders below were run against IFN-αH2 (human, UniProt P01570 24-189) (assay: cell-based or functional assay).

Binder	IC50, ISRE assay
B6	29 pM
B7	45 pM
B8	16 pM
B9	440 pM
B10	28 pM
B11	40 pM
B12	46 pM
B13	32 pM
B14	23 pM
B15	42 pM
B16	88 pM
B17	9600 pM
B18	33 pM
B19	35 pM
B20	13 pM
B21	15 pM

Target: T1, IFN-αF
Assay: cell-based or functional assay

Binder	IC50, ISRE assay
B6	66 pM
B7	111 pM
B8	35 pM
B9	631 pM
B10	54 pM
B11	58 pM
B12	117 pM
B13	155 pM
B14	54 pM
B15	62 pM
B16	170 pM
B17	16000 pM
B18	77 pM
B19	64 pM
B20	29 pM
B21	43 pM

These binders were tested against T3, IFN-αC (human, UniProt P01566 24-189) (assay: cell-based or functional assay).

Binder	IC50, ISRE assay
B6	272 pM
B7	196 pM
B8	68 pM
B9	1420 pM
B10	266 pM
B11	157 pM
B12	306 pM
B13	996 pM
B14	392 pM
B15	117 pM
B16	583 pM
B17	53900 pM
B18	168 pM
B19	112 pM
B20	189 pM
B21	138 pM

These binders were tested against T4, IFN-αJ1 (human, UniProt P01567 24-189) (assay: ProteOn SPR, cell supernatant;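 note: each binding measurement used just a single antigen concentration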).
T4 construct: Recombinant, HEK293; also called IFN-α7
From the text: (§1) To increase the assay throughput, only one concentration of the individual antigen was used.

Binder	Kd
B6	0.142 nM
B8	0.036 nM
B18	0.082 nM
B19	0.068 nM
B20	0.05 nM
B21	0.06 nM

The binders below were run against T2, IFN-αG (assay: ProteOn SPR, cell supernatant;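 note: each binding measurement used just a single antigen concentration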).
From the text: as §1

Binder	Kd
B6	0.023 nM
B8	0.015 nM
B18	0.052 nM
B19	0.029 nM
B20	0.03 nM
B21	0.052 nM

These binders were tested against T5, IFN-αWA (human, UniProt P05015 24-189) (assay: ProteOn SPR, cell supernatant;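 note: each binding measurement used just a single antigen concentration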).
T5 construct: Recombinant, HEK293; also called IFN-α16
From the text: as §1

Binder	Kd
B6	0.052 nM
B8	0.039 nM
B18	0.052 nM
B19	0.069 nM
B20	0.037 nM
B21	0.049 nM

Each binder was assayed against T6, human IFN-ω (human, UniProt P05000 24-195) (assay: ProteOn SPR, cell supernatant;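 note: each binding measurement used just a single antigen concentration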).
T6 construct: Recombinant, HEK293; also called interferon omega
From the text: as §1

Binder	Kd
B6	0.032 nM
B8	0.02 nM
B18	0.029 nM
B19	0.028 nM
B20	0.03 nM
B21	0.033 nM

Target: T1, IFN-αF
Assay: ProteOn SPR, cell supernatant;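 note: each binding measurement used just a single antigen concentration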
From the text: as §1

Binder	Kd
B6	0.041 nM
B8	0.019 nM
B18	0.052 nM
B19	0.045 nM
B20	0.021 nM
B21	0.022 nM

What follows are binders tested against T3, IFN-αC (assay: ProteOn SPR, cell supernatant;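 note: each binding measurement used just a single antigen concentration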).
From the text: as §1

Binder	Kd
B6	0.041 nM
B8	0.022 nM
B18	0.037 nM
B19	0.029 nM
B20	0.025 nM
B21	0.023 nM

What follows are binders tested against T7, IFN-α4a (human, UniProt P05014 24-189) (assay: ProteOn SPR, cell supernatant).
T7 construct: Recombinant, HEK293; also called IFN-αM1
From the text: as §1

Binder	Kd
B6	0.178 nM
B8	0.067 nM
B18	0.086 nM
B19	0.103 nM
B20	0.088 nM
B21	0.135 nM
